Data reported in US20150291967.

How the values were obtained:
Assay in all cases: cell_activity
[1] = test system: TALEN ALS2_T02 right monomer (synthetic construct)
[2] = test system: TALEN ALS2_T01 left monomer (synthetic construct)
[3] = test system: TALEN ALS1_T02 right monomer (synthetic construct)
[4] = test system: TALEN ALS2_T01 right monomer (synthetic construct)
[5] = test system: TALEN ALS2_T02 left monomer (synthetic construct)
[6] = test system: TALEN ALS1_T02 left monomer (synthetic construct)
[7] = test system: TALEN ALS1_T01 left monomer (synthetic construct); details: yeast beta-galactosidase reporter, pair with P2, 37 C (0.83 at 30 C)
[8] = test system: TALEN ALS1_T01 right monomer (synthetic construct); details: yeast beta-galactosidase reporter, pair with P1, 37 C (0.83 at 30 C)

CTGTCTCCTATTTCCTA (double strand) [ALS2_T02 right half-site (top strand)]
activity ([1]; endogenous site, N. benthamiana protoplasts, pair with P7, control 0.10%): 66.9 % NHEJ
activity (relative to I-SceI) ([1]; yeast beta-galactosidase reporter, pair with P7, 37 C (0.9 at 30 C)): 1

TAGCTTGTTCCACATTT (double strand) [ALS2_T01 left half-site]
activity ([2]; endogenous site, N. benthamiana protoplasts, pair with P6, control 0.25%): 74 % NHEJ
activity (relative to I-SceI) ([2]; yeast beta-galactosidase reporter, pair with P6, 37 C (0.9 at 30 C)): 1

TATAAGTTGATTCTTAA (double strand) [ALS1_T02 right half-site (top strand)]
activity ([3]; endogenous site, N. benthamiana protoplasts, pair with P3, control 0.55%): 4.9 % NHEJ
activity (relative to I-SceI) ([3]; yeast beta-galactosidase reporter, pair with P3, 37 C (0.90 at 30 C)): 0.95

TGTCATGCTGGGTCAGA (double strand) [ALS2_T01 right half-site (top strand)]
activity ([4]; endogenous site, N. benthamiana protoplasts, pair with P5, control 0.25%): 74 % NHEJ
activity (relative to I-SceI) ([4]; yeast beta-galactosidase reporter, pair with P5, 37 C (0.9 at 30 C)): 1

TTCTCTCGAGTCCTAGG (double strand) [ALS2_T02 left half-site]
activity ([5]; endogenous site, N. benthamiana protoplasts, pair with P8, control 0.10%): 66.9 % NHEJ
activity (relative to I-SceI) ([5]; yeast beta-galactosidase reporter, pair with P8, 37 C (0.9 at 30 C)): 1

TTGGACTTGTATGGGTT (double strand) [ALS1_T02 left half-site]
activity ([6]; endogenous site, N. benthamiana protoplasts, pair with P4, control 0.55%): 4.9 % NHEJ
activity (relative to I-SceI) ([6]; yeast beta-galactosidase reporter, pair with P4, 37 C (0.90 at 30 C)): 0.95

TTTAGTGCGATAAAGTT (double strand) [ALS1_T01 left half-site]
activity (relative to I-SceI) [7]: 0.93

TTTTATTTCGTAAGCTA (double strand) [ALS1_T01 right half-site (top strand)]
activity (relative to I-SceI) [8]: 0.93
